# From PMC12360793
# Key:
# [1] = target: biotinylated monomeric MOW15–22 RBD (MOW15–22 (bat MERSr-CoV sampled in Pipistrellus nathusii)); test: BLI
# [2] = target: biotinylated monomeric PnNL2018B RBD (PnNL2018B (bat MERSr-CoV sampled in Pipistrellus nathusii)); test: BLI
# [3] = target: dimeric P.dav ACE2 ectodomain (cryo-EM sample with MOW15–22 RBD) (P.dav (a Pteronotus bat)); test: cryo-EM structure
Substance,Kd [1] [µM],Kd [2] [µM],stoichiometry N (RBD per ACE2 dimer) [3]
"dimeric P.nat ACE2 ectodomain (residues 17–729, avi-His8) (domain or fragment)",0.0128,0.897,
MOW15–22 RBD (cryo-EM sample with P.dav ACE2) (from UniProt Q56H28 360-611) (domain or fragment),,,< 1
"monomeric P.nat ACE2 ectodomain (residues 17–614, avi-His8) (domain or fragment)",1.45,,
"monomeric P.dav ACE2 ectodomain (residues 17–613, avi-His8) (from UniProt Q56H28 17-613) (domain or fragment)",1.07,,
"dimeric P.dav ACE2 ectodomain (residues 17–728, avi-His8) (from UniProt Q56H28 17-728) (domain or fragment)",0.00638,,
